Patent publication US9556249B2, “Neuregulin antagonists and use thereof in treating cancer” (Genentech, Inc., priority 2010, dated 2017)

Key:
KPL4 = test: KPL4-GFP orthotopic breast cancer model, response to chemotherapy; assay type: in vivo, SCID/beiz mice; conditions: following completion of chemotherapy regimen; tumors subsequently recurred
Protocol: Several cancer models that show significant regression in response to chemotherapy followed by tumor relapse after the cessation of therapy (FIG. 1) were generated and used to study the cells that are responsible for tumor re-initiation. These cells are tumor reinitiating cells (TRICs). In order to generate the models, GFP labeled human tumor cells were transplanted subcutaneously, and when tumor size reached ˜200 mm^3, mice were treated with either vehicle or chemotherapy as shown in the respective models. GFP+ tumor cells were isolated from regressed or vehicle treated tumors by FACS-sorting after enzymatic digestion and dissociation. Tumors were collected a minimum of one week after the last dose of chemotherapy and before the resumption of tumor growth.
GFP-expressing sublines of the human breast cancer cell line KPL4 were transplanted orthotropically to the mammary fat pad of SCID/beiz mice. For the KPL4 model, chemotherapy consisted of Paclitaxel (20 mg/kg, i.v. every other day for 5 doses). FIG. 2C (data presented as mean tumor volume±SEM, n=12 mice/group).

[1] = test system: LSL-K-ras^G12D lung tumors; conditions: LSL-K-ras^G12D mice (Oliver et al., 2010); cited from earlier work
[2] = test system: LSL-K-ras^G12D; p53^Fl/+ lung tumors; test: LSL-K-ras G12D; p53 Fl/+ lung tumor model, micro-CT tumor burden; assay type: in vivo, mice
[3] = test system: LSL-K-ras^G12D lung tumors; test: LSL-K-ras G12D x Z/EG mouse NSCLC model, FACS of GFP-positive tumor cells; assay type: in vivo; conditions: one week after final dose of cisplatin, vs vehicle controls
Protocol: In addition, the LSL-K-ras^G12D genetically engineered mouse model of NSCLC (Jackson et al., 2001) was crossed to the Z/EG Cre-reporter strain (Novak et al., 2000) and used in this study. Cisplatin (7 mg/kg i.p. every 7 days for 3 doses) was started 12 weeks after AdenoCre infection of the lungs (ie. tumor initiation). Lungs were collected 1 week after the last dose of chemotherapy and tumor cells were isolated by FACS after enzymatic digestion and dissociation. […] FIG. 2D (data presented as the average number of GFP positive cells per lung±SEM, n=6/group).

[4] = test system: LSL-K-ras^G12D; p53^Fl/Fl lung tumors; test: LSL-K-ras G12D; p53 Fl/Fl lung tumor model, micro-CT tumor burden; assay type: in vivo, mice
NRG1/HER3 signaling = test: HER4-ECD added to serum starved LKPH1 and LKPH2 cells, Western blotting; assay type: cell-based, mouse; conditions: HER4ECD 2 mg/ml, 48 hours
H1299-shNRG1.2 = H1299-shNRG1.2 in vivo study; conditions: magnitude of growth inhibition smaller than with shNRG1
NRG1 mRNA = NRG1 mRNA levels in H1299 subline expressing shNRG1.2; assay type: cell-based, human; conditions: compared with shNRG1
H441 cells = test: Exogenous NRG1 stimulation of serum starved H441 cells, Western blotting; assay type: cell-based, human; conditions: 1 uM NRG1, ten minutes
HER4 = HER4 knockdown in Calu3-shHER4 cells, qPCR; assay type: cell-based, human; conditions: dox 2 ug/ml
[5] = test system: Calu3-shHer4 xenograft tumors; test: Calu3-shHER4 xenograft tumor growth; assay type: in vivo, mice; conditions: dox vs sucrose
HER3 = HER3 knockdown in Calu3-shHER3 cells, qPCR and Western blot; assay type: cell-based, human
[6] = test system: Calu3-shHER3 xenograft tumors; test: Calu3-shHER3 xenograft tumor growth; assay type: in vivo, mice; conditions: dox treatment; vs sucrose TDT=11 days

## CC(=O)O[C@H]1C(=O)[C@@]2(C)[C@H]([C@H](OC(=O)c3ccccc3)[C@]3(O)C[C@H](OC(=O)[C@H](O)[C@@H](NC(=O)c4ccccc4)c4ccccc4)C(C)=C1C3(C)C)[C@]1(OC(C)=O)CO[C@@H]1C[C@@H]2O [Paclitaxel]
KPL4
  tumor size vs vehicle-treated mice: significantly smaller

## N.N.[Cl][Pt][Cl] [cisplatin]
[1]
  survival: does not result in prolonged survival
[2]; cisplatin+control IgG2A
  average tumor burden at conclusion of study and overall tumor growth rate vs vehicle: not significantly different
[3]
  number of GFP-positive tumor cells per lung: significant decrease in tumor cell number

## HER4-ECD: fusion of the human HER4 extracellular domain to murine IgG2A Fc; ligand trap to sequester NRG1
[2]; cisplatin+HER4-ECD combination
  tumor growth (average tumor burden and tumor growth rate): significant inhibition of tumor growth
[4]; HER4-ECD treatment alone
  effect on tumor growth: no effect
[4]; day 28, cisplatin+HER4-ECD vs cisplatin+vehicle and all other groups
  tumor burden by micro-CT: significant reduction in tumor burden
NRG1/HER3 signaling
  p-HER3 levels: diminished

B1: shNRG1.2: a different doxycycline-inducible shRNA to NRG1 (SEQ ID NO: 3 and 4) (nucleic acid)
chain 1: GATCCCCGAGTATATGTGCAAAGTGATTCAAGAGATCACTTTGCACATATACTCTTTTTTGGAAA
chain 2: AGCTTTTCCAAAAAAGAGTATATGTGCAAAGTGATCTCTTGAATCACTTTGCACATATACTCGGG
H1299-shNRG1.2
  response to chemotherapy upon NRG1 knockdown: enhanced response to chemotherapy
NRG1 mRNA
  reduction in NRG1 mRNA levels: more modest reduction

B2: NRG1: recombinant human NRG1 beta-1 extracellular domain (R&D systems), exogenous ligand (protein, UniProt Q02297 20-242, looked up)
extracellular domain: SGKKPESAAGSQSPALPPRLKEMKSQESAAGSKLVLRCETSSEYSSLRFKWFKNGNELNRKNKPQNIKIQKKPGKSELRINKASLADSGEYMCKVISKLGNDSASANITIVESNEIITGMPASTEGAYVSSESPIRISVSTEGANTSSSTSTSTTGTSHLVKCAEKEKTFCVNGGECFMVKDLSNPSRYLCKCQPGFTGARCTENVPMKVQNQEKAEELYQKR
modifications: extracellular domain
notes: recombinant human NRG1 beta-1 extracellular domain (R&D systems), exogenous ligand
H441 cells
  levels of p-Stat3 or p-Mek1/2: no detectable changes
  p-HER3 and p-AKT: increase

B3: shHER4: dox-inducible shRNA to HER4 (SEQ ID NO: 5 and 6) (nucleic acid)
chain 1: GATCCCCGATCACAACTGCTGCTTAATTCAAGAGATTAAGCAGCAGTTGTGATCTTTTTTGGAAA
chain 2: AGCTTTTCCAAAAAAGATCACAACTGCTGCTTAATCTCTTGAATTAAGCAGCAGTTGTGATCGGG
HER4
  HER4 transcript levels: decreased
[5]
  inhibition of tumor growth: not a notable inhibition of tumor growth

B4: shHER3: dox-inducible shRNA to HER3 (SEQ ID NO: 7 and 8) (nucleic acid)
chain 1: GATCCCCAAGAGGATGTCAACGGTTATTCAAGAGATAACCGTTGACATCCTCTTTTTTTTGGAAA
chain 2: AGCTTTTCCAAAAAAAAGAGGATGTCAACGGTTATCTCTTGAATAACCGTTGACATCCTCTTGGG
HER3; dox 2 ug/ml, qPCR
  HER3 transcript levels: decreased
HER3; in the presence of dox, compared with Calu3-shHER4
  extent of p-AKT down-regulation: much greater
[6]
  time to doubling (TDT): 19 days
